Paper PMC8551311, “Energy transfer between the nicotinamide nucleotide transhydrogenase and ATP synthase of Escherichia coli” (Scientific Reports, 2021)

Tests used:
Experiment in all cases: purified protein
Type in all cases: biochemical, Escherichia coli
[1] = substrate: NC(=O)C1=CN([C@@H]2O[C@H](COP(=O)(O)OP(=O)(O)OC[C@H]3O[C@@H](n4cnc5c(N)ncnc54)[C@H](O)[C@@H]3O)[C@@H](O)[C@H]2O)C=CC1; conditions: apparent, forward reaction, 0.5 mM NADP+ held constant by glutathione reductase/oxidized glutathione, 50 mM HEPES pH 7.5, 0.1% DDM
[2] = substrate: NC(=O)C1=CN([C@@H]2O[C@H](COP(=O)(O)OP(=O)(O)OC[C@H]3O[C@@H](n4cnc5c(N)ncnc54)[C@H](OP(=O)(O)O)[C@@H]3O)[C@@H](O)[C@H]2O)C=CC1; conditions: apparent, reverse reaction, 0.5 mM NAD+ held constant by lactate dehydrogenase/pyruvate, 50 mM HEPES pH 7.5, 0.1% DDM
[3] = substrate: NC(=O)c1ccc[n+]([C@@H]2O[C@H](COP(=O)(O)OP(=O)(O)OC[C@H]3O[C@@H](n4cnc5c(N)ncnc54)[C@H](O)[C@@H]3O)[C@@H](O)[C@H]2O)c1; conditions: apparent, reverse reaction, 100 μM NADPH held constant by glucose-6-phosphate dehydrogenase/D-glucose-6-phosphate, 5 mM MgCl2, 50 mM HEPES pH 7.5, 0.1% DDM
[4] = substrate: NC(=O)c1ccc[n+]([C@@H]2O[C@H](COP(=O)(O)OP(=O)(O)OC[C@H]3O[C@@H](n4cnc5c(N)ncnc54)[C@H](OP(=O)(O)O)[C@@H]3O)[C@@H](O)[C@H]2O)c1; conditions: apparent, forward reaction, NADH held constant by alcohol dehydrogenase/ethanol (50 μM in methods, 500 μM in results), 6 mM hydrazine, 50 mM HEPES pH 7.5, 0.1% DDM

B1: E. coli transhydrogenase (TH, EcTH) (Escherichia coli K-12) (protein)
chain 1: MRIGIPRERLTNETRVAATPKTVEQLLKLGFTVAVESGAGQLASFDDKAFVQAGAEIVEGNSVWQSEIILKVNAPLDDEIALLNPGTTLVSFIWPAQNPELMQKLAERNVTVMAMDSVPRISRAQSLDALSSMANIAGYRAIVEAAHEFGRFFTGQITAAGKVPPAKVMVIGAGVAGLAAIGAANSLGAIVRAFDTRPEVKEQVQSMGAEFLELDFKEEAGSGDGYAKVMSDAFIKAEMELFAAQAKEVDIIVTTALIPGKPAPKLITREMVDSMKAGSVIVDLAAQNGGNCEYTVPGEIFTTENGVKVIGYTDLPGRLPTQSSQLYGTNLVNLLKLLCKEKDGNITVDFDDVVIRGVTVIRAGEITWPAPPIQVSAQPQAAQKAAPEVKTEEKCTCSPWRKYALMALAIILFGWMASVAPKEFLGHFTVFALACVVGYYVVWNVSHALHTPLMSVTNAISGIIVVGALLQIGQGGWVSFLSFIAVLIASINIFGGFTVTQRMLKMFRKN
chain 2: MSGGLVTAAYIVAAILFIFSLAGLSKHETSRQGNNFGIAGMAIALIATIFGPDTGNVGWILLAMVIGGAIGIRLAKKVEMTEMPELVAILHSFVGLAAVLVGFNSYLHHDAGMAPILVNIHLTEVFLGIFIGAVTFTGSVVAFGKLCGKISSKPLMLPNRHKMNLAALVVSFLLLIVFVRTDSVGLQVLALLIMTAIALVFGWHLVASIGGADMPVVVSMLNSYSGWAAAAAGFMLSNDLLIVTGALVGSSGAILSYIMCKAMNRSFISVIAGGFGTDGSSTGDDQEVGEHREITAEETAELLKNSHSVIITPGYGMAVAQAQYPVAEITEKLRARGINVRFGIHPVAGRLPGHMNVLLAEAKVPYDIVLEMDEINDDFADTDTVLVIGANDTVNPAAQDDPKSPIAGMPVLEVWKAQNVIVFKRSMNTGYAGVQNPLFFKENTHMLFGDAKASVDAILKAL
- Km [1]: 6.8 ± 1 µM
- Km [2]: 4.1 ± 1.2 µM
- Km [3]: 108 ± 12 µM
- Km [4]: 37 ± 7 µM
